This is an account of results in paper PMC4142212 (Nature, 2014).

For assay [1], the target named is T1, ZMYND11 PBP (PHD-Bromo-PWWP, aa74-371) (Mus musculus, UniProt Q8R5C8).
T1 sequence (Q8R5C8 74-371): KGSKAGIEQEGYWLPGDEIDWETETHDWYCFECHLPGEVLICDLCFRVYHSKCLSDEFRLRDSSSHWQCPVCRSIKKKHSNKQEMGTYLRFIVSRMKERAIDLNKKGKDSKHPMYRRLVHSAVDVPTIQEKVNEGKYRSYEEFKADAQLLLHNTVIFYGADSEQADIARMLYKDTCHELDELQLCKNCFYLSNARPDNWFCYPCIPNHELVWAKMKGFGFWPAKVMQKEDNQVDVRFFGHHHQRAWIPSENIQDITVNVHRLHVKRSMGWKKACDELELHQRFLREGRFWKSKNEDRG
The experiment in a line: ITC, ZMYND11 PBP domains. It is filed as binding. Conditions: n value fixed at 1. In general terms: ITC needs no label: the signal is the heat of the interaction.

Another assay deals with ZMYND11 PBP. The experiment in a line: Histone peptide pull-down, GST-ZMYND11 PBP. The format is binding, mouse. The settings on record: mild buffer: 50 mM Tris-HCl 7.5, 200 mM NaCl, 0.05% NP-40, 1 mM PMSF.
Assay [2] has as its target T2, ZMYND11 BP (Bromo-PWWP, 154-371) (Mus musculus, UniProt Q8R5C8).
T2 sequence (Q8R5C8 154-371): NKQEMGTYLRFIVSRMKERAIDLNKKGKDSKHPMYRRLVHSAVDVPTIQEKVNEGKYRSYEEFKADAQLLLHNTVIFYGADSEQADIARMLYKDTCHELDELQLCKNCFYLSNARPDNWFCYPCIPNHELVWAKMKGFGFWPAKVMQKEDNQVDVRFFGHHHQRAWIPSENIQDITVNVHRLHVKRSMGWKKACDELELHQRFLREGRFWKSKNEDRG
Briefly: ITC, ZMYND11 BP domains. It is filed as binding. The settings on record: n value fixed at 1.

As to “H3.1K36me3: synthetic histone H3.1_19-42K36me3 peptide”, the figures for the Titration c-value in assay [1] and in assay [2] were 0.16 and 0.15, respectively. Also, in the assay with ZMYND11 PBP, the “peptide pull-down binding, mild buffer” value was “weak binding”.
